Laboratory results from patent publication US20220048967A1 (published 2022).
Changes are numbered by the printed parent chain. Numbered stars: 1 amine (or outer) side, 2 acyl side, 3 side chain; on linkers, the order of the positions; unused ones are H or OH. Square brackets hold non-standard residues; d marks the D form. Side chains are listed from the residue outwards. Ends that are not written are not given here. * marks the point of attachment. C20 diacid = O=C(O)CCCCCCCCCCCCCCCCCCC(=O)*; γGlu = O=C(O)[C@H](CCC(=O)[*:2])N[*:1]; αMeL = CC(C)C[C@](C)(N)C(=O)O; Dab = NCC[C@H](N)C(=O)O; Dap = NC[C@H](N)C(=O)O; AEEA = NCCOCCOCC(=O)O; Aib = CC(C)(N)C(=O)O

B1: Example 336 (peptide)
peptide: XXEGTXTSDYSIXLDKKAQXAFIEYLIEGGPSSGAPPPS
modifications: not fully specified; D-Tyr1, Aib2, αMeF(2F)6, αMeL13, K17 conjugated to (2-[2-(2-Amino-ethoxy)-ethoxy]-acetyl)2-(γ-Glu)-CO-(CH2)18-CO2H, Aib20, C-terminal amide (NH2)
B2: Example 331 (peptide)
peptide: YXEGTFTSDYSIXLDEKAQXEFIEYLIAGGPSSGAPPPS
modifications: Aib2, αMeL13, K17 conjugated to (2-[2-(2-Amino-ethoxy)-ethoxy]-acetyl)2-(γ-Glu)-CO-(CH2)18-CO2H, Aib20, C-terminal amide (NH2)
B3: Example 339 (peptide)
peptide: B2 peptide with E16K
modifications: not fully specified; Aib2, αMeL13, K17 conjugated to (2-[2-(2-Amino-ethoxy)-ethoxy]-acetyl)-(γ-Glu)-CO-(CH2)18-CO2H, Aib20, C-terminal amide (NH2)
B4: Example 344 (peptide)
peptide: B2 peptide with E21D
modifications: not fully specified; Aib2, αMeL13, K17 conjugated to (2-[2-(2-Amino-ethoxy)-ethoxy]-acetyl)2-(γ-Glu)-CO-(CH2)18-CO2H, Aib20, C-terminal amide (NH2)
B5: Example 342 (peptide)
peptide: B2 peptide with Y1X
modifications: not fully specified; D-Tyr1, Aib2, αMeL13, K17 conjugated to (2-[2-(2-Amino-ethoxy)-ethoxy]-acetyl)2-(γ-Glu)-CO-(CH2)18-CO2H, Aib20, C-terminal amide (NH2)
B6: Example 332 (peptide)
peptide: B2 peptide with E21A
modifications: Aib2, αMeL13, K17 conjugated to (2-[2-(2-Amino-ethoxy)-ethoxy]-acetyl)2-(γ-Glu)-CO-(CH2)18-CO2H, Aib20, C-terminal amide (NH2)
B7: Example 343 (peptide)
peptide: B2 peptide with E21A, E24X
modifications: not fully specified; Aib2, αMeL13, K17 conjugated to (2-[2-(2-Amino-ethoxy)-ethoxy]-acetyl)2-(γ-Glu)-CO-(CH2)18-CO2H, Aib20, D-Glu24, C-terminal amide (NH2)
B8: Example 330 (peptide)
peptide: Y[Aib]EGTFTSDYSILLDEK([AEEA-AEEA-γGlu-C20 diacid])AQ[Aib]AFIEYLIAGGPSSGAPPPS-NH2
modifications: N-terminus assumed
SMILES: CC[C@H](C)[C@H](NC(=O)[C@H](CC(C)C)NC(=O)[C@H](Cc1ccc(O)cc1)NC(=O)[C@H](CCC(=O)O)NC(=O)[C@@H](NC(=O)[C@H](Cc1ccccc1)NC(=O)[C@H](C)NC(=O)C(C)(C)NC(=O)[C@H](CCC(N)=O)NC(=O)[C@H](C)NC(=O)[C@H](CCCCNC(=O)COCCOCCNC(=O)COCCOCCNC(=O)CC[C@H](NC(=O)CCCCCCCCCCCCCCCCCCC(=O)O)C(=O)O)NC(=O)[C@H](CCC(=O)O)NC(=O)[C@H](CC(=O)O)NC(=O)[C@H](CC(C)C)NC(=O)[C@H](CC(C)C)NC(=O)[C@@H](NC(=O)[C@H](CO)NC(=O)[C@H](Cc1ccc(O)cc1)NC(=O)[C@H](CC(=O)O)NC(=O)[C@H](CO)NC(=O)[C@@H](NC(=O)[C@H](Cc1ccccc1)NC(=O)[C@@H](NC(=O)CNC(=O)[C@H](CCC(=O)O)NC(=O)C(C)(C)NC(=O)[C@@H](N)Cc1ccc(O)cc1)[C@@H](C)O)[C@@H](C)O)[C@@H](C)CC)[C@@H](C)CC)C(=O)N[C@@H](C)C(=O)NCC(=O)NCC(=O)N1CCC[C@H]1C(=O)N[C@@H](CO)C(=O)N[C@@H](CO)C(=O)NCC(=O)N[C@@H](C)C(=O)N1CCC[C@H]1C(=O)N1CCC[C@H]1C(=O)N1CCC[C@H]1C(=O)N[C@@H](CO)C(N)=O
B9: Example 348 (peptide)
peptide: [dY][Aib]EGTFTSDYSI[αMeL]LD[Dap]K([AEEA-AEEA-γGlu-C20 diacid])AQ[Aib]AFIEYLIAGGPSSGAPPPS-NH2
modifications: N-terminus assumed
SMILES: CC[C@H](C)[C@H](NC(=O)[C@H](CC(C)C)NC(=O)[C@H](Cc1ccc(O)cc1)NC(=O)[C@H](CCC(=O)O)NC(=O)[C@@H](NC(=O)[C@H](Cc1ccccc1)NC(=O)[C@H](C)NC(=O)C(C)(C)NC(=O)[C@H](CCC(N)=O)NC(=O)[C@H](C)NC(=O)[C@H](CCCCNC(=O)COCCOCCNC(=O)COCCOCCNC(=O)CC[C@H](NC(=O)CCCCCCCCCCCCCCCCCCC(=O)O)C(=O)O)NC(=O)[C@H](CN)NC(=O)[C@H](CC(=O)O)NC(=O)[C@H](CC(C)C)NC(=O)[C@](C)(CC(C)C)NC(=O)[C@@H](NC(=O)[C@H](CO)NC(=O)[C@H](Cc1ccc(O)cc1)NC(=O)[C@H](CC(=O)O)NC(=O)[C@H](CO)NC(=O)[C@@H](NC(=O)[C@H](Cc1ccccc1)NC(=O)[C@@H](NC(=O)CNC(=O)[C@H](CCC(=O)O)NC(=O)C(C)(C)NC(=O)[C@H](N)Cc1ccc(O)cc1)[C@@H](C)O)[C@@H](C)O)[C@@H](C)CC)[C@@H](C)CC)C(=O)N[C@@H](C)C(=O)NCC(=O)NCC(=O)N1CCC[C@H]1C(=O)N[C@@H](CO)C(=O)N[C@@H](CO)C(=O)NCC(=O)N[C@@H](C)C(=O)N1CCC[C@H]1C(=O)N1CCC[C@H]1C(=O)N1CCC[C@H]1C(=O)N[C@@H](CO)C(N)=O
B10: Example 347 (peptide)
peptide: [dY][Aib]EGTFTSDYSI[αMeL]LD[Dab]K([AEEA-AEEA-γGlu-C20 diacid])AQ[Aib]AFIEYLIAGGPSSGAPPPS-NH2
modifications: N-terminus assumed
SMILES: CC[C@H](C)[C@H](NC(=O)[C@H](CC(C)C)NC(=O)[C@H](Cc1ccc(O)cc1)NC(=O)[C@H](CCC(=O)O)NC(=O)[C@@H](NC(=O)[C@H](Cc1ccccc1)NC(=O)[C@H](C)NC(=O)C(C)(C)NC(=O)[C@H](CCC(N)=O)NC(=O)[C@H](C)NC(=O)[C@H](CCCCNC(=O)COCCOCCNC(=O)COCCOCCNC(=O)CC[C@H](NC(=O)CCCCCCCCCCCCCCCCCCC(=O)O)C(=O)O)NC(=O)[C@H](CCN)NC(=O)[C@H](CC(=O)O)NC(=O)[C@H](CC(C)C)NC(=O)[C@](C)(CC(C)C)NC(=O)[C@@H](NC(=O)[C@H](CO)NC(=O)[C@H](Cc1ccc(O)cc1)NC(=O)[C@H](CC(=O)O)NC(=O)[C@H](CO)NC(=O)[C@@H](NC(=O)[C@H](Cc1ccccc1)NC(=O)[C@@H](NC(=O)CNC(=O)[C@H](CCC(=O)O)NC(=O)C(C)(C)NC(=O)[C@H](N)Cc1ccc(O)cc1)[C@@H](C)O)[C@@H](C)O)[C@@H](C)CC)[C@@H](C)CC)C(=O)N[C@@H](C)C(=O)NCC(=O)NCC(=O)N1CCC[C@H]1C(=O)N[C@@H](CO)C(=O)N[C@@H](CO)C(=O)NCC(=O)N[C@@H](C)C(=O)N1CCC[C@H]1C(=O)N1CCC[C@H]1C(=O)N1CCC[C@H]1C(=O)N[C@@H](CO)C(N)=O

How the values were obtained:
human GLP-1 receptor = human GLP-1 receptor (human, UniProt P43220 24-463); test: cell-based or functional assay
[1] = target: Pro-Link-tagged Human GLP-1R (human, UniProt P43220 24-463); test: cell-based or functional assay

Binder	hGLP1R GTPgS % Top (human GLP-1 receptor) [%]	hGLP1R GTPgS Rel EC50 (human GLP-1 receptor) [nM]	hGLP1R B-Arrestin2 % Top [1] [%]	hGLP1R B-Arrestin2 Rel EC50 [1] [nM]
B1	90.2	0.377	82.5	7.78
B2	80.9	0.375	44.3	12.8
B3	74.1	0.326	44	10.7
B4	85.8	0.423	46	34.3
B5	77.2	0.414	20.7	35
B6	81.5	0.453	45.6	17.1
B7	74.9	0.522	41.4	45.5
B8	47.8	1.05		> 10900
B9	47.7	0.66	19.8	3.46
B10	46.9	0.759	24.6	5.42
